Data reported in the RNAGym collection of RNA variant scans (doi:10.1073/pnas.2313332121).

B1: TPR t1 (parent)
chain: GACCAAUCUGCCCUCAGAGCUCGAGAACAUCUUCGGAUGCAGAGGAGGCAGGCUUCGGUGGCGCGAUAGCGCCAACGUCCUCAACCUCCAAUGCAUCCCACCACAUGAUGAUGCCUGAAGAGCCUUGGUUUUUUG

Variants of: B1
Test: polymerase ribozyme fitness, log enrichment relative to wild type (log ratio); higher = more active; in vitro selection for triplet polymerase activity
In short: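 Mutant libraries were PCR-built and transcribed for each subunit of a heterodimeric triplet polymerase ribozyme and selected for one round in triplicate at −7 °C, frozen, before gel excision of extended constructs and streptavidin-bead capture. Input and output libraries were Illumina-sequenced, keeping genotypes with ≥10 input reads and ≥1 read per output. Fitness is a logarithmic ratio of genotype to wild-type enrichment, in base 2, using inverse-variance-weighted replicate averages.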

| Variant | polymerase ribozyme fitness (log ratio) |
| --- | --- |
| G17U A41C G61A C89A | -4.06 |
| G17A C49G A50G U106A | -3.86 |
| C15U C53G C82A | -1.78 |
| A16U A18U U133A | -4.63 |
| A16G G69U C73A C115U | -1.93 |
| G17C C72U C88A | -4.4 |
| A16U A24G C115G | -6.98 |
| G17U A46U C53G G63C A83C C85G C89U A121C C123U U126A | -6.58 |
| G17U C49U G93A | -4.22 |
| A16U A37C G71U A111U | -5.61 |
| A18C A43G C114U U129C | -3.16 |
| A16G C70A A95C | -4.17 |
| G17U G63U U133A | -3.87 |
| C15U G48A G57A C86A | -3.37 |
| C15U C56U U87G G113A U130A | -3.68 |
| A16U C62A A105C | -4.73 |
| A16C C79U U87A C124U | -0.106 |
| G17A C40U | -3.88 |
| A16U A29U U30A A41C C49G A90G G120C | -6.59 |
| A16G G61C | -2.19 |
| C15U C34A G60C C82G A105G G113U | -6.14 |
| A16U G47C C49U G61C C82G C89U A91G C115A | -7.61 |
| C15U G42U G120U G127C | -2.69 |
| C15U G120A | -1.08 |

| Variant | polymerase ribozyme fitness (log ratio) |
| --- | --- |
| C15U G120U | -0.697 |
| C15U G17A G19A U38G G69C A75U U92G U109C C124U U134G | -5.8 |
| G17C U78A A111U | -6.19 |
| A16C C49G C101A | -4.66 |
| A16U C62G C123A | -3 |
| A16U G69U A121C | 1.22 |
| G17A G48U G69C C88G | -5.4 |
| C15U G61A C82U C85A C86G | -2.18 |
| C15G C62U C79A A95G G117U | -1.98 |
| G17A G71U | -3.07 |
| A16U C102A | -3.35 |
| A16C G42U G57C A118U | -2.43 |
| A18C A37G G110C | -6.11 |
| A16G A75U C123U | -0.477 |
| G17A G63U U133C | -3.8 |
| C15G C56U A83U C115G C123A | -4.36 |
| C15G G71A | -2.92 |
| C15U C79A | -2.26 |
| C15G G52U C89G G117C | -1.36 |
| G17A A46C G63U A74U C89G C102U A105U | -7.26 |
| G17C A43C A83U | -6.26 |
| G17A A95U | -3.81 |
| C15U G44U C85A C94U G117C A118U | -4.78 |
| C15U C72G | -1.64 |

| Variant | polymerase ribozyme fitness (log ratio) |
| --- | --- |
| A16U C20A C73G G117U A119U | -5.33 |
| G17A A91C G93C G120C U131C | -1.37 |
| C15U U81G C82G A119G G120U C123A | -0.519 |
| G17A C80U | -3.53 |
| G17A C80A | -5.66 |
| A16C G42A | -3.47 |
| C15G G47U U55C U78C C82U C86A G120U | -2.18 |
| A16C C53U | -2.99 |
| A16G A29G G44A U87G A121C | -2.16 |
| C15U C88A A91C | -2.47 |
| G17A G61U C85A C97U | -4.18 |
| A16C G45C U59A C72A U112C G135U | -4.45 |
| G17C G63U | -4.39 |
| C15G G113C | -6.27 |
| C15U U96A A119G | 0.622 |
| C15G U112C | -1.42 |
| C15G C73U G107U G117C | -3.77 |
| C15U U54A C80A | -4.07 |
| G17U G63U C73U | -4.41 |
| C15G G60A G117U | -0.472 |
| G17U G71A G135U | -4.32 |
| C15U G113U | -3.92 |
| G17C U21A G39A C72A U112C C115A | -0.984 |
| G17U G48A A50U G61C G93A U106A | -5.21 |

| Variant | polymerase ribozyme fitness (log ratio) |
| --- | --- |
| A18C C20A G93A G113A C124U U126G | -4.14 |
| G17A A43U C73G G120A | -3.38 |
| C15U G17U A74C U78G C80U C115A | -2.32 |
| C15U C98U | -2.28 |
| C15U G47A G113C A121C | -4.25 |
| A16G C40G | -0.424 |
| G17A G63A | -4.79 |
| G17U C20G G52A G113A A119G | -2.03 |
| C15U U87A | -2.53 |
| C15U A16U G71A C115A | -3.96 |
| A16U G52U G117A U130C U131G | -4.01 |
| G17U C97U | -3.45 |
| A16G C49A A68G C73U | -4.78 |
| C15U A18C | -3.52 |
| A16C C115G | -3.37 |
| C15U A27G U32A A46C C82A G117U | -5.76 |
| C15G G63C U96C G117C U130G | -0.822 |
| A18C A29U C88U C89U C97U | -4.49 |
| A16G G48A U126G | -4.19 |
| C15U C62A C79A | -4.11 |
| C15U G57U C102A U116G C123G | -4.08 |
| A16U U92A A111C | -4.66 |
| C15U A29U C40A A46C | -5.8 |
| A16U C73U G93C U96A | -4.76 |

| Variant | polymerase ribozyme fitness (log ratio) |
| --- | --- |
| A18C C53U A121U | -0.907 |
| C15U G65A G69U U87G | -4.77 |
| G17U G52C C72U | -2.43 |
| G17A G63U A90C U112A | -5.03 |
| A18C A95U C124A | -0.947 |
| C15U C53G C64A C104A C124U | -6.1 |
| A18C C53U C70U | -4.83 |
| G17C A18U C40U C56G C70G A108G A111U | -7.19 |
| C15U G42A G48A C79U A105C U112A G113U C124A | -4.71 |
| C15G C98U A111G | -5.41 |
| A16U U32A A46U A103C A111G | -5.71 |
| G17A G69C | -3.95 |
| C15G C88G G120C | -1.47 |
| A16U G60C | -2.17 |
| G17A U55G C123A | -2.36 |
| G17U G61C | -3.76 |
| G17C A46G U55C | -5.15 |
| A16G G44A C97G U112C U133A | -4.45 |
| G17U G42U G45A G69C U81G C86A C94U C99A A121C | -6.32 |
| C15U G36A A121C | 0.213 |
| A18C A43U | 0.3 |
| C15U G93A | -1.99 |
| A16C G120A | -2.28 |
| A18C A24G G58A U92C | -5.73 |

| Variant | polymerase ribozyme fitness (log ratio) |
| --- | --- |
| G17A U54C G120U | -1.75 |
| G17A G120U | -1.62 |
| A16G C86U | -1.54 |
| G17C U38G C70G A95C C99A C104U A105G G110C | -6.76 |
| A16U G42U C53G G71A G120A | -2.89 |
| A16G G60U G107U C124G | -4.06 |
| A16U C34A U109G C123A U129G | -5.83 |
| C15U G63A C79A C97U U112G | -4.94 |
| C15U G71U | -1.38 |
| G17U C40A G48U C70U C99A G113A G117C | -6.87 |
| C15G C40A U92C | -4.63 |
| C15U C28U A68G G110A | -2.39 |
| C15U A18G A37G U54A G65C A100U C115A | -5.35 |
| G17C G47A A95U | -5.58 |
| G17U A29G A37U U112G | -3.31 |
| C15G G47U | -3.95 |
| C15G U96G G120A | -1.53 |
| C15G C49G G61A C85A G110A | -3.95 |
| A16U C82A | -2.02 |
| C15U C40U G61U | -0.881 |
| A16U A37U G69U U106C G120U | -0.0765 |
| C15G A95U C98U | -5.14 |
| C15U C72A A83C C89U C97U | -3.4 |
| G17A A37U A50C | -4.99 |

| Variant | polymerase ribozyme fitness (log ratio) |
| --- | --- |
| G17C A50C U81A C114U G120U | -5.67 |
| G17A G60U C97U | -4.13 |
| A16U C56A | -1.97 |
| G17U C72U C89A | -3.71 |
| A16U G110A | -2.07 |
| A16C C98U G110A C124A | -4.72 |
| A16U C22U | -3.56 |
| A18C C56A C82A C94U U106C | -4.93 |
| C15G C40U C56A C73U C80A C124G | -5.12 |
| C15G G44U C72U | -4.59 |
| G17U U21G G47C C115A | -1.81 |
| G17U U38G G45A C88U C101U | -2.92 |
| A16U C73A | -2.64 |
| A16G C70U C115A U125C | -2.39 |
| A16G C53G U87G U96A U112A | -1.33 |
| G17A G60U C79A | -5.25 |
| C15U G69U U78C | -0.901 |
| G17A A43G | -3.39 |
| A16G | -0.761 |
| A16U | -1.46 |
| A16C | -2.19 |
| G17A C70U | -3.03 |
| A16G U92G C98G C114A | -6.53 |
